Measurements reported in IntAct's records for PubMed 18583988.

B1: Nibrin (Homo sapiens), O60934 (parent)
chain: MWKLLPAAGPAGGEPYRLLTGVEYVVGRKNCAILIENDQSISRNHAVLTANFSVTNLSQTDEIPVLTLKDNSKYGTFVNEEKMQNGFSRTLKSGDGITFGVFGSKFRIEYEPLVACSSCLDVSGKTALNQAILQLGGFTVNNWTEECTHLVMVSVKVTIKTICALICGRPIVKPEYFTEFLKAVESKKQPPQIESFYPPLDEPSIGSKNVDLSGRQERKQIFKGKTFIFLNAKQHKKLSSAVVFGGGEARLITEENEEEHNFFLAPGTCVVDTGITNSQTLIPDCQKKWIQSIMDMLQRQGLRPIPEAEIGLAVIFMTTKNYCDPQGHPSTGLKTTTPGPSLSQGVSVDEKLMPSAPVNTTTYVADTESEQADTWDLSERPKEIKVSKMEQKFRMLSQDAPTVKESCKTSSNNNSMVSNTLAKMRIPNYQLSPTKLPSINKSKDRASQQQQTNSIRNYFQPSTKKRERDEENQEMSSCKSARIETSCSLLEQTQPATPSLWKNKEQHLSENEPVDTNSDNNLFTDTDLKSIVKNSASKSHAAEKLRSNKKREMDDVAIEDEVLEQLFKDTKPELEIDVKVQKQEEDVNVRKRPRMDIETNDTFSDEAVPESSKISQENEIGKKRELKEDSLWSAKEISNNDKLQDDSEMLPKKLLLTEFRSLVIKNSTSRNPSGINDDYGQLKNFKKFKKVTYPGAGKLPHIIGGSDLIAHHARKNTELEEWLRQEMEVQNQHAKEESLADDLFRYNPYLKRRR

Variants of: B1
Settings: with mdc1_human MDC1, Q14676
Chain of mdc1_human MDC1, Q14676 (Q14676 whole entry): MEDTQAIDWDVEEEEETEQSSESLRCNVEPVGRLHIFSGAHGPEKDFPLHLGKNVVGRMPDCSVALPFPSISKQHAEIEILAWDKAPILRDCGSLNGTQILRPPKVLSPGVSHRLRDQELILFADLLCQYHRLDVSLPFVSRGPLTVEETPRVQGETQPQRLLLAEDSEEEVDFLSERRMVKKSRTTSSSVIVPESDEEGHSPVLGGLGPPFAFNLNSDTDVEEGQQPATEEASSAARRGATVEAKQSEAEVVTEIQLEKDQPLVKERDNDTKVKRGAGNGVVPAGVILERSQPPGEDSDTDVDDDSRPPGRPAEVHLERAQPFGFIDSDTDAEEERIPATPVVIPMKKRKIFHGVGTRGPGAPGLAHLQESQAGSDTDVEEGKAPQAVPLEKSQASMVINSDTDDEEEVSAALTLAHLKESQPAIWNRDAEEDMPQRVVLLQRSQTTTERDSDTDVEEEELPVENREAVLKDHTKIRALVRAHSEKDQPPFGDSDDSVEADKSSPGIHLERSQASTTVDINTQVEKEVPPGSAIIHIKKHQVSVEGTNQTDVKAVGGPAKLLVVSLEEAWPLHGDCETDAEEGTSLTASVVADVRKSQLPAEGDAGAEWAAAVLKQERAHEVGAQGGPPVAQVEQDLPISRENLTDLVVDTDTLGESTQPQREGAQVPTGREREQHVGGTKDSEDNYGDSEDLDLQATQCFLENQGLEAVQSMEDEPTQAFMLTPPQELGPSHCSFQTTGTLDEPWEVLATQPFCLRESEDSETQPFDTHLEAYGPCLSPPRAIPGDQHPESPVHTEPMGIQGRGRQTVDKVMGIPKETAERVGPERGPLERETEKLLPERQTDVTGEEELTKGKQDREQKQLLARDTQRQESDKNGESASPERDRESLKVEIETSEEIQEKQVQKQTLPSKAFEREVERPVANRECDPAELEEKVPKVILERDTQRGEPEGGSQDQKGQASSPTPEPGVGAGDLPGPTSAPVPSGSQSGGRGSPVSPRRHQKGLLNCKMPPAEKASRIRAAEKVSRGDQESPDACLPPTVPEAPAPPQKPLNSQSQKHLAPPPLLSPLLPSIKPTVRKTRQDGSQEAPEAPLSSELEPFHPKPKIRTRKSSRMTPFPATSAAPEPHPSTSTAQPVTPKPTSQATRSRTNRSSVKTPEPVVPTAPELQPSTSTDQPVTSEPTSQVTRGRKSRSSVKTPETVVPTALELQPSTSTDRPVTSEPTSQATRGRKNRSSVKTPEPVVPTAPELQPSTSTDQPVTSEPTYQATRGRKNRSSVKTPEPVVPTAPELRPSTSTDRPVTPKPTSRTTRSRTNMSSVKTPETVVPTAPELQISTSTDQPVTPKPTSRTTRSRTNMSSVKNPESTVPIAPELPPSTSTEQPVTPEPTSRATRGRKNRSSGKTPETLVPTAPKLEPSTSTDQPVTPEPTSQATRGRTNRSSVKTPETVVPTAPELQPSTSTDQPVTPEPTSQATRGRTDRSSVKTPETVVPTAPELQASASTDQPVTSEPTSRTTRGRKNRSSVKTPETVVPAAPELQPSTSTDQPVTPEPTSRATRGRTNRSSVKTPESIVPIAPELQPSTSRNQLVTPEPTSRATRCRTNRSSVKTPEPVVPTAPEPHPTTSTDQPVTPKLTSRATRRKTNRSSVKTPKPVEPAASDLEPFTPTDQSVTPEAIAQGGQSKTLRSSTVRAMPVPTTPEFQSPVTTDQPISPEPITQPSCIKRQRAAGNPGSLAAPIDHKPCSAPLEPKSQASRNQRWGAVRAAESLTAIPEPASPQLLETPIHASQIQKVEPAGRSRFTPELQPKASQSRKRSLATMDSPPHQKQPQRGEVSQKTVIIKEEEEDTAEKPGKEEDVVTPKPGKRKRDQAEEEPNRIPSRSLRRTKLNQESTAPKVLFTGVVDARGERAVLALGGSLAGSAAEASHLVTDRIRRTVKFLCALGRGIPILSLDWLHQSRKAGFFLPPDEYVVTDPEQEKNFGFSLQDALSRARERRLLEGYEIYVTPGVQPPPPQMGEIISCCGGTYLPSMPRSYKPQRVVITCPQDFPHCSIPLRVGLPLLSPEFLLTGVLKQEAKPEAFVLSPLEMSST

Row | effect of a mutation on the interaction | Variant
1 | disrupting interaction | R28A

Variants of: B1
Settings: with mdc1_human MDC1, Q14676
Remark: another data set of the same source

Row | effect of a mutation on the interaction | Variant
2 | disrupting interaction | H45A

Variants of: B1
Settings: with mdc1_human MDC1, Q14676
Remark: another data set of the same source

Row | effect of a mutation on the interaction | Variant
3 | disrupting interaction | K160M
